The text below walks through data of article PMC10341550, “Beta-Secretase 1 Recruits Amyloid-Beta Precursor Protein to ROCK2 Kinase, Resulting in Erroneous Phosphorylation and Beta-Amyloid Plaque Formation” (International Journal of Molecular Sciences, 2023).

A word on the Kd: it is a measure of binding affinity in units of concentration. A higher Kd goes with weaker binding.

In experiment [1] the target is Full-length ROCK2 protein (human ROCK2 1–1388) (human) (UniProt O75116). Put plainly: SPR; Biacore X, CM5; full-length ROCK2 amine-coupled (1700 RU); analyte 7 µM with 100 µM MgATP (15-fold molar excess); HBS-EP pH 7.4, 10 µL/min. On the technique in general: SPR reads the build-up and loss of mass on a sensor chip optically.
Sequence of Full-length ROCK2 protein (human ROCK2 1–1388) (human) (O75116 whole entry, the tested form may be a part): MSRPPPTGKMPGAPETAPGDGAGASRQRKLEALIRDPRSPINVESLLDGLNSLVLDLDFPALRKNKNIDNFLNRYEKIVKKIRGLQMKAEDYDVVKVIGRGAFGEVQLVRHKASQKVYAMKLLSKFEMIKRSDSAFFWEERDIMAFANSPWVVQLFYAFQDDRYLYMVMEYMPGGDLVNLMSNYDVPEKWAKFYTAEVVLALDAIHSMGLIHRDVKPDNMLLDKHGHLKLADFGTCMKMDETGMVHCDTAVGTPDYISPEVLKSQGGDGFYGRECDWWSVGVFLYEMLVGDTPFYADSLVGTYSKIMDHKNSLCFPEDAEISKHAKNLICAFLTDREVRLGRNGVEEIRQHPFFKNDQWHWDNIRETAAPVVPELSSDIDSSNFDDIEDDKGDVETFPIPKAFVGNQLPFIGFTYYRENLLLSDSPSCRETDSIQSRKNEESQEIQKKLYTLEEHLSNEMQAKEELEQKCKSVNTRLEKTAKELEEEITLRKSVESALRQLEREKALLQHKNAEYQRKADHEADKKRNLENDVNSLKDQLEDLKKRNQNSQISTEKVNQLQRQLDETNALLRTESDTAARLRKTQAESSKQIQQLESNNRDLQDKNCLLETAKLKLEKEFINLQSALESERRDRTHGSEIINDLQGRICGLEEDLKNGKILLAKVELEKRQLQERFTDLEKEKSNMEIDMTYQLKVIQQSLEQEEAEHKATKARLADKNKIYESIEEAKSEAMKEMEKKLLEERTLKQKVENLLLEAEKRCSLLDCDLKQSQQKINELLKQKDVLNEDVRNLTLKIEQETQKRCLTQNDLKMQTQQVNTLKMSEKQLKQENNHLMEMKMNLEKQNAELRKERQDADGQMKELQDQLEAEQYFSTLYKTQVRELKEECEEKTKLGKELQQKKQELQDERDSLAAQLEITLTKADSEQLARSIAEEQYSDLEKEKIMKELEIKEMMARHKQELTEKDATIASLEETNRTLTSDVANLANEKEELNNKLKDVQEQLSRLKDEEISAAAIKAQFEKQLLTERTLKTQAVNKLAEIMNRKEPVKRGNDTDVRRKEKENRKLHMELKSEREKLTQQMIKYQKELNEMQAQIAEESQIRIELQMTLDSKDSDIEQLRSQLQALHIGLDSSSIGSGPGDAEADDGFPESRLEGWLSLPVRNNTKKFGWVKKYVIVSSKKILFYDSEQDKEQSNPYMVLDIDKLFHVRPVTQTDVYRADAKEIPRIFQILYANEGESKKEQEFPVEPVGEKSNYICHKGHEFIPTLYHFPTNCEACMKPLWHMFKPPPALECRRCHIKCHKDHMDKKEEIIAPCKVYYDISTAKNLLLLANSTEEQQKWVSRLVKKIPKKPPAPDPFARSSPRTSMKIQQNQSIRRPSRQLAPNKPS
In experiment [2] the target is BACE1 cytoplasmic domain peptide (residues 479–501), N-terminally labelled with 5-FAM. Put plainly: fluorescence polarisation; direct titration: 50 nM fluorescein-labelled BACE1 peptide, dilution series of ROCK2; 20 mM Tris pH 8.0, 100 mM NaCl, 0.05% Brij35P, 2 mM DTT; 384-well plates.

Sequence of ROCK2 kinase domain (27–417) construct (O75116 27-417): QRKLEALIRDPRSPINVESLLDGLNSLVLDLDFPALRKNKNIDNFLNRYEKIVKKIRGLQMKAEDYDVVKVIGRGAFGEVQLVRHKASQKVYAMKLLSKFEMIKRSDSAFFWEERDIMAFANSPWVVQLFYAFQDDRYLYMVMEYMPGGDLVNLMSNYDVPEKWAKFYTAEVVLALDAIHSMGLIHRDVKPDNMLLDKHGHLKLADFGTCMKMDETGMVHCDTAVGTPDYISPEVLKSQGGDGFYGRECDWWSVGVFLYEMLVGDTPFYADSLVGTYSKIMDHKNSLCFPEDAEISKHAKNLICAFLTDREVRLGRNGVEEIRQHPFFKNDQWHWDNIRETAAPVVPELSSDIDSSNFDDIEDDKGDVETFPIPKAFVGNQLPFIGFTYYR
Sequence of Full-length ROCK2 protein (human ROCK2 1–1388) (O75116 whole entry): as the sequence (O75116 whole entry, the tested form may be a part) above

In experiment [1], “BACE1 cytoplasmic domain peptide (residues 479–501), free form” yielded a percent of the theoretical signal of 50% and a response units of 11 RU.

With “Full-length ROCK2 protein (human ROCK2 1–1388) (from UniProt O75116 1-1388) (enzyme)”, the equilibrium dissociation constant (Kd) in experiment [2] is 18 µM. This lies in the double-digit micromolar range.

As to “ROCK2 kinase domain (27–417) construct (from UniProt O75116 27-417) (domain or fragment)”, the Kd in experiment [2] was found to be 18 µM.
